Earlier results on one substance are cited in PMC5430633.

This series has as its target LC3B (Homo sapiens) (UniProt Q9GZQ8).

Regarding Nix LIR (from UniProt O60238), the dissociation constant (Kd) was 91 µM.

Broadly, the Kd is the constant that tells how readily two partners part at equilibrium.
